Holding throughout (experiment): multimer staining
Assay [1] addresses T1, WT1 (wildtype WT1 peptide) peptide on HLA-A*24:02 (human).
T1 peptide: CMTWNQMNL

Assay [2] deals with T2, WT1 (mutant WT1 peptide: second methionine of the wildtype peptide substituted with tyrosine) peptide on … (human).
T2 peptide: CYTWNQMNL

Assay [3] concerns the target T3, HIV (human immunodeficiency virus) envelope peptide on HLA-A*24:02 (human).
T3 peptide: RYLRDQQLL

B1: WT1 TCR A12-3/B5-1 (TCR, V domains shown)
Valpha: QKEVEQDPGPLSVPEGAIVSLNCTYSNSAFQYFMWYRQYSRKGPELLMYTYSSGNKEDGRFTAQVDKSSKYISLFIRDSQPSDSATYLCATSNAGGTSYGKLTFGQGTILTVHP
Vbeta: KAGVTQTPRYLIKTRGQQVTLSCSPISGHRSVSWYQQTPGQGLQFLFEYFSETQRNKGNFPGRFSGRQFSNSRSEMNVSTLELGDSALYLCASSYGERERKGETQYFGPGTRLLVL
On to B1, for which the binding result in assay [1] is “recognises”; in assay [2], “recognises”; in assay [3] it was “no recognition”.

(Values after patent US20140212888A1 (published 2014).)
